As a reminder, the Kd is the equilibrium constant for the complex coming apart.

The source of these data is paper PMC4938799, “LD Motif Recognition by Talin: Structure of the Talin-DLC1 Complex” (Structure(London, England:1993), 2016).

This experiment concerns the target T1, talin R8 domain.
T1 construct: talin rod domain R8 (four-helix bundle), isolated domain used 15N-labelled for NMR; Construct limits, host and species are probably in the Supplemental Experimental Procedures; also called [15N]talin R8 domain
Description: NMR titration; KD fitted from 1H,15N-HSQC chemical-shift changes; 0.1 mM 15N talin R8, peptide/protein ratios 0.1 to 8; 298 K, 20 mM sodium phosphate pH 6.5, 50 mM NaCl. As to conditions: both partners purified.

With MDDLDALLADLESTTS [paxillin LD1 peptide], the Kd was 168 µM.

As to ENEDIFPELDDILYHVKGMQRIVNQWSEK (Paper numbering is the 1091-residue isoform; +437 gives canonical numbering.) [DLC1(461–489) peptide], the dissociation constant Kd was 48 µM.
